Measurements from the supplement of paper PMC10567573.

B1: ZNF207 (parent)
chain: FQPQPVQPQQGYIPPMAQPGLPPV
B2: PTPN9 (parent)
chain: ILFSLPPALDWDSVHVPGPHAMTI

Variants of: B1
Assay: protein stability index of a GFP-peptide fusion (GPS, HEK-293T) (PSI 1-6); higher = more stable
Details: c terminus: a fixed tail appended
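Further: lentivirally expressed fusions sorted by FACS into six bins by GFP to DsRed ratio, PSI derived from sequencing read proportions per bin multiplied by bin number.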

Protein stability index of substitutions, site by site:
P22: M 2.4; I 2.68; G 2.74
Q2: N 3.66; L 3.49; Y 2.92; K 3.54; D 4.03
Q9: I 2.89; R 3.26; T 3.01; F 2.34
P8: L 3.19; R 2.61; M 2.47; W 2.31; H 2.89; A 3.27; E 3.22; S 2.97; N 3.03
P5: S 3.18; N 2.8; H 3.15; D 3.18; V 2.57; F 2.33
Q7: L 3.04; D 3.26; W 2.25; E 2.98; I 3.29; V 3.63; M 3.21
Q4: C 3.01; M 2.72; V 3.12; N 3.43; S 3.21
Q18: W 2.03; M 2.7
G20: W 1.7; M 2.75; V 3.72; S 3.24; C 2.93; Q 3.46
V6: K 3.08; E 3.61; Y 2.75; L 3.06; D 3.26; R 2.92
V24: E 3.75; L 2.44
P14: E 2.86; C 2.61; K 2.83; Q 2.74; R 2.81; G 2.79
L21: W 2.26
Q10: C 2.5; G 3.39; I 2.12; W 1.95
M16: Y 2.82; R 2.97; S 3.5; K 3.21; N 3.48; W 2.06
A17: P 3.04; N 3.59; C 3.27; R 3.15; V 2.96; W 1.93; S 3.86
Y12: E 3.77; L 3.81; I 3.29; T 3.69; P 3.6
F1: M 3.9; E 4.36; L 4.03; C 3.07; W 3.26; G 4.37; Q 4.18
P19: G 3.12; L 2.7; F 2.38
G11: K 2.89; A 3.03; C 2.18; N 2.93; P 2.74; D 3.63; M 2.66; T 2.6; R 3.21; E 3.69
P3: I 2.67; M 3.38; Q 3.31; T 3.95; N 3.55
I13: D 3.57; W 2.56; G 3.29; E 3.71; F 3.4; K 2.85; C 3.33; S 3.58
P23: A 3.4; G 2.27; D 3.28; C 2.91; L 3.04; R 3.02; N 2.69; F 1.88; I 2.65
P15: S 2.87; V 3.23; Y 2.66

Variants of: B2
Assay: as above
Details: c terminus: a fixed tail appended

Protein stability index: each site, then its substitutions
I24: H 1.63; R 1.71; Q 2.71; K 2.06; M 2.69; G 2.29; E 1.69; N 1.71; V 2.31; P 1.85; D 1.83; W 3.21; F 3.71; T 1.97; L 1.99; C 2.43; Y 1.73; S 1.57; A 1.55
T23: G 3.89; A 1.49; Q 2.73; K 2.87; M 4.43; L 1.76; F 2.25; R 3.03; S 2.4; H 1.88; I 2.96; D 2.6; E 2.33; Y 2.69; W 2.7; C 3.21; P 1.2; N 3.27; V 4.05
